The results in this text go back to paper PMC7261407.

A word on the Kd: it is a measure of binding affinity in units of concentration. Low values mean higher affinity, high ones lower affinity.

The target in this experiment is trimeric gp140 clade A HIV-1 92/UG/037 (HIV-1 clade A strain 92/UG/037). In words: SPR.

On to GNA (natural protein), for which the dissociation constant (Kd) worked out at 7.2 nM.
